Assay results as given in patent US12186353B2, “Method of reducing neuronal microtubule binding protein Tau (Tau) levels” (ADAERATA, LIMITED PARTNERSHIP, priority 2018, dated 2025).

Tests used:
[1] = test system: human Tau fused with GFP; assay: Flow cytometry of Tau-GFP over DsRed in DAOY cells transfected with Numb isoforms; type: cell-based; settings: three days after transfection, compared to controls (Myc-Tag)
From the text: FIGS. 6A-I: Isoform Numb-72 interacts with Tau and regulates Tau level. FIG. 6A. Schematic of 4 Numb isoforms, differing with the presence or the absence of an insertion (arrowhead) in PTB domain arrowhead, and the presence or the absence of an insertion in the proline-rich region (PRR). FIG. 6B. Coimmunoprecipitation of Tau and 4 isoforms of Numb in HEK293 cells. Each Numb isoform was transfected in HEK293T cells together with a flag-tagged version of Tau and immunoprecipitation was perform 24 hours later with a flag antibody and blotted for Numb. […] FIG. 6C. Detection of Tau::GFP level in presence of 4 isoforms of Numb by western blot in HEK293. All the Numb isoforms were transfected with a Tau::GFP fusion protein in HEK293T cells and the levels of Tau::GFP was analysed by western blot 48 hours after transfection. FIG. 6D. […] DsRed-IRES-Tau::EGFP expressing cells were used to assess the abundance of Tau by monitoring the Tau-GFP to DsRed fluorescence ratio. […] FIGS. 6F-J. Fluorescence-activated cell sorting (FACs) analysis of the 4 Numb isoforms affected 3 days after transfection on ratio DsRed versus DsRed and GFP-positives cells compared to the control (Myc-Tag). FIG. 6K Quantification represents fold change for 5 experiments, +/− SEM, **p≤0.001; n.s. non-significant Anova 1-way test. […]

[2] = test system: Tau; assay: Dot blot of monomeric and oligomeric Tau in the media of HEK293T cells expressing Tau; type: cell-based; settings: media collected 24 h after doxycycline, vs GFP control
Method: FIGS. 9A-B: Numb72 stimulates secretion of the monomeric form of Tau in the extracellular media in cell lines, but not oligomeric (toxic) Tau. FIG. 9A. Dot blot of monomeric Tau levels (5A6) and oligomer of Tau (T22) in the media of HEK293T stable inducible cells line expressing Tau transfected with either GFP (Control) or Numb72. Tau expression was activated by adding Doxycycline 6 h after transfection and the media collected 24 h later for Dot-blot. FIG. 9B. Quantification of extracellular Tau levels; data are mean±SEM, n.s non-significant; *p<0.05. Student's t test, n=6 for Tau5A6 and n=4 for T22.
The impact of Numb on the secretion of monomeric and oligomeric Tau was assessed. A cell line (HEK293T) expressing Tau was transfected with either GFP (Control) or Numb72, and the monomeric Tau (5A6) and oligomeric Tau (T22) levels were assessed in the cell media by dot blot assay on the collected culture medium.

B1: Numb-72: 72 kDa Numb isoform with long PTB domain and long PRR; human isoform 1 (SEQ ID NO: 1); expressed by transfection (protein)
chain: MNKLRQSFRRKKDVYVPEASRPHQWQTDEEGVRTGKCSFPVKYLGHVEVDESRGMHICEDAVKRLKAERKFFKGFFGKTGKKAVKAVLWVSADGLRVVDEKTKDLIVDQTIEKVSFCAPDRNFDRAFSYICRDGTTRRWICHCFMAVKDTGERLSHAVGCAFAACLERKQKREKECGVTATFDASRTTFTREGSFRVTTATEQAEREEIMKQMQDAKKAETDKIVVGSSVAPGNTAPSPSSPTSPTSDATTSLEMNNPHAIPRRHAPIEQLARQGSFRGFPALSQKMSPFKRQLSLRINELPSTMQRKTDFPIKNAVPEVEGEAESISSLCSQITNAFSTPEDPFSSAPMTKPVTVVAPQSPTFQANGTDSAFHVLAKPAHTALAPVAMPVRETNPWAHAPDAANKEIAATCSGTEWGQSSGAASPGLFQAGHRRTPSEADRWLEEVSKSVRAQQPQASAAPLQPVLQPPPPTAISQPASPFQGNAFLTSQPVPVGVVPALQPAFVPAQSYPVANGMPYPAPNVPVVGITPSQMVANVFGTAGHPQAAHPHQSPSLVRQQTFPHYEASSATTSPFFKPPAQHLNGSAAFNGVDDGRLASADRHTEVPTGTCPVDPFEAQWAALENKSKQRTNPSPTNPFSSDLQKTFEIEL
modifications: homo sapiens
notes: 72 kDa Numb isoform with long PTB domain and long PRR; expressed by transfection
[1]
  proportion of cells with low levels of Tau-GFP (Tau-GFP over DsRed): increased the proportion of cells with low levels of Tau-GFP
[2]
  secretion of monomeric Tau (5A6) in the cell media: stimulates the secretion of monomeric Tau
  secretion of oligomeric Tau (T22) in the cell media: not of toxic (oligomeric) Tau
